Values belong to the substance of their own block, whether it stands above or below them.
Tests used:
[1] = biological target: antigen of LL2 (not named; LL2 is called an anti-B-cell monoclonal antibody); experiment: cell binding assay, calculated from the ID50 values; cells not named
WN = experiment: competitive binding ELISA with WN as the surrogate Ag, from ID50 values
[2] = biological target: antigen of hMN14 (not named); experiment: competitive binding assay; format and target not stated
[3] = biological target: antigen of LL2 (not named; LL2 is called an anti-B-cell monoclonal antibody); experiment: as above

Substance: hMN14 F(ab')2 with the grafted LL2 Vk glycosylation site, LC-DTPA conjugated at the Vk-CHO (2.1 chelators/F(ab')2) (antibody)
Immunoreactivity (from ID50 against unmodified control F(ab')2) [2]: 100%

Substance: mLL2 F(ab')2, DTPA conjugated at random lysines (2.2 chelators/F(ab')2) (antibody)
Immunoreactivity (from ID50 against unmodified control F(ab')2) [3]: 75%

Substance: mLL2 F(ab')2, DTPA conjugated at random lysines (4.3 chelators/F(ab')2) (antibody)
Immunoreactivity (from ID50 against unmodified control F(ab')2) [3]: 21%

Substance: mLL2 F(ab')2, DTPA conjugated at the Vk-CHO (5.5 chelators/F(ab')2) (antibody)
Immunoreactivity (from ID50 against unmodified control F(ab')2) [3]: 100%

Next, values leading:

Immunoreactivity (%), Cell binding [1]: 41.9%
Immunoreactivity (%), ELISA (WN): 42.2%
Substance: LL2 F(ab')2, DOX-dextran conjugated (5.1 DOX/F(ab')2) (antibody)

Immunoreactivity (%), Cell binding [1]: 100%
Immunoreactivity (%), ELISA (WN): 100%
Substance: LL2 F(ab')2, non-conjugated (murine mAb, naturally glycosylated in the V domain) (antibody)

Immunoreactivity (from ID50 against unmodified control F(ab')2) [3]: 100%
Substance: mLL2 F(ab')2, LC-DTPA conjugated at the Vk-CHO (4.6 chelators/F(ab')2) (antibody)
